{
  "source": "paper PMC9520032",
  "target": "Vibrio cholerae cytolysin E289A mutant, mature form (Vibrio cholerae)",
  "experiment": "cryo-EM structure",
  "data": [
    {"substance": "Vibrio cholerae cytolysin E289A mutant, mature form (natural protein)", "values": [
      {"measurement": "stoichiometry N", "result": 7}
    ]}
  ]
}
